Where two headings read alike, the source gives them in different places.
Experiments:
[1] = Thermofluor (TF) assay of STX binding; details: 1.1 μM Sxph, 0-20 μM STX; ΔTm at 20 μM toxin
[2] = type: binding; details: for Kd: FP, 1 nM F-STX, 25° C., errors S.D.; for ΔΔG: ΔΔG = RT ln(Kd mutant or XSxph/Kd RcSxph), T = 298K, FP with F-STX
[3] = type: binding; details: ITC, STX, 25° C.
Protocol: . […] In almost all mutants, binding affinity loss correlated with a reduction in enthalpy, consistent with a loss of interactions (Table S2). […]. […] Together, these three assays (FIGS. 1E and G) provide a robust and versatile suite of options for characterizing STX:Sxph interactions.
ITC measurements were performed at 25° C. using a MicroCal PEAQ-ITC calorimeter (Malvern Panalytical). […]. This STX stock was diluted with the SEC buffer to prepare 100 μM or 300 μM STX solutions having a final buffer composition of 135 mM NaCl, 9 mM HEPES, pH 7.4. […]. The calorimetric experiment settings were: reference power, 5 μcal/s; spacing between injections, 150 s; stir speed 750 rpm; and feedback mode, high. Data were analyzed using MicroCal PEAQ-ITC Analysis Software (Malvern Panalytical) using a single binding site model. The heat of dilution from titrations of 100 μM STX in 135 mM NaCl, 9 mM HEPES, pH 7.4 into 135 mM NaCl, 9 mM HEPES, pH 7.4 was subtracted from each experiment to correct the baseline.

Row | Molecule | ΔTm (STX-induced change of melting temperature) [1] | Kd [2] [nM] | ΔΔG [2] [kcal/mol] | Kd [3] [nM] | ΔG [3] [kcal/mol] | ΔH [3] [kcal/mol] | ΔS (cal mol^−1 K^−1) [3] [cal mol^−1 K^−1]
1 | D785N: RcSxph STX binding pocket mutant D785N (protein) MAPTFQTALFFTIISLSFAAPNAKQVRWCAISDLEQKKCNDLVGSCNVPDITLVCVLRSSTEDCMTAIKDGQADAMFLDSGEVYEASKDPYNLKPIIAEPYSSNRDLQKCLKERQQALAKKMIGHYIPQCDEKGNYQPQQCHGSTGHCWCVNAMGEKISGTNTPPGQTRATCERHELPKCLKERQVALGGDEKVLGRFVPQCDEKGNYEPQQFHGSTGYSWCVNAIGEEIAGTKTPPGKIPATCQKHDLVTTCHYAVAMVKKSSAFQFNQLKGKRSCHSGVSKTDGWKALVTVLVEKKLLSWDGPAKESIQRAMSKFFSVSCIPGATQTNLCKQCKGEEGKNCKNSHDEPYYGNYGAFRCLKEDMGDVAFLRSTALSDEHSEVYELLCPDNTRKPLNKYKECNLGTVPAGTVVTRKISDKTEDINNFLMEAQKRQCKLFSSAHGKDLMFDDSTLQLALLSSEVDAFLYLGVKLFHAMKALTGDAHLPSKNKVRWCTINKLEKMKCDDWSAVSGGAIACTEASCPKGCVKQILKGEADAVKLEVQYMYEALMCGLLPAVEEYHNKDDFGPCKTPGSPYTDFGTLRAVALVKKSNKDINWNNIKGKKSCHTGVGDIAGWVIPVSLIRRQNDNSDIDSFFGESCAPGSDTKSNLCKLCIGDPKNSAANTKCSLSDKEAYYGNQGAFRCLVEKGDVAFVPHTVVFENTDGKNPAVWAKNLKSEDFELLCLDGSRAPVSNYKSCKLSGIPPPAIVTREESISDVVRIVANQQSLYGRKGFEKDMFQLFSSNKGNNLLFNDNTQCLITFNRQPKDIMEDYFGKPYYTTVYGASRSAMSSELISACTIKHC | DTm increases relative to wild-type | 4.4 ± 0.6 | -0.30 |  |  |  | 
2 | E540D: RcSxph STX binding pocket mutant E540D (protein) MAPTFQTALFFTIISLSFAAPNAKQVRWCAISDLEQKKCNDLVGSCNVPDITLVCVLRSSTEDCMTAIKDGQADAMFLDSGEVYEASKDPYNLKPIIAEPYSSNRDLQKCLKERQQALAKKMIGHYIPQCDEKGNYQPQQCHGSTGHCWCVNAMGEKISGTNTPPGQTRATCERHELPKCLKERQVALGGDEKVLGRFVPQCDEKGNYEPQQFHGSTGYSWCVNAIGEEIAGTKTPPGKIPATCQKHDLVTTCHYAVAMVKKSSAFQFNQLKGKRSCHSGVSKTDGWKALVTVLVEKKLLSWDGPAKESIQRAMSKFFSVSCIPGATQTNLCKQCKGEEGKNCKNSHDEPYYGNYGAFRCLKEDMGDVAFLRSTALSDEHSEVYELLCPDNTRKPLNKYKECNLGTVPAGTVVTRKISDKTEDINNFLMEAQKRQCKLFSSAHGKDLMFDDSTLQLALLSSEVDAFLYLGVKLFHAMKALTGDAHLPSKNKVRWCTINKLEKMKCDDWSAVSGGAIACTEASCPKGCVKQILKGEADAVKLEVQYMYEALMCGLLPAVDEYHNKDDFGPCKTPGSPYTDFGTLRAVALVKKSNKDINWNNIKGKKSCHTGVGDIAGWVIPVSLIRRQNDNSDIDSFFGESCAPGSDTKSNLCKLCIGDPKNSAANTKCSLSDKEAYYGNQGAFRCLVEKGDVAFVPHTVVFENTDGKNPAVWAKNLKSEDFELLCLDGSRAPVSNYKSCKLSGIPPPAIVTREESISDVVRIVANQQSLYGRKGFEKDMFQLFSSNKGNNLLFNDNTQCLITFDRQPKDIMEDYFGKPYYTTVYGASRSAMSSELISACTIKHC |  | 99.9 ± 25.1 | 1.54 | 68.9 ± 10.7 | -9.8 ± 0.1 | -16.3 ± 1.7 | −21.9 ± 5.7
3 | D794E: RcSxph STX binding pocket mutant D794E (protein) MAPTFQTALFFTIISLSFAAPNAKQVRWCAISDLEQKKCNDLVGSCNVPDITLVCVLRSSTEDCMTAIKDGQADAMFLDSGEVYEASKDPYNLKPIIAEPYSSNRDLQKCLKERQQALAKKMIGHYIPQCDEKGNYQPQQCHGSTGHCWCVNAMGEKISGTNTPPGQTRATCERHELPKCLKERQVALGGDEKVLGRFVPQCDEKGNYEPQQFHGSTGYSWCVNAIGEEIAGTKTPPGKIPATCQKHDLVTTCHYAVAMVKKSSAFQFNQLKGKRSCHSGVSKTDGWKALVTVLVEKKLLSWDGPAKESIQRAMSKFFSVSCIPGATQTNLCKQCKGEEGKNCKNSHDEPYYGNYGAFRCLKEDMGDVAFLRSTALSDEHSEVYELLCPDNTRKPLNKYKECNLGTVPAGTVVTRKISDKTEDINNFLMEAQKRQCKLFSSAHGKDLMFDDSTLQLALLSSEVDAFLYLGVKLFHAMKALTGDAHLPSKNKVRWCTINKLEKMKCDDWSAVSGGAIACTEASCPKGCVKQILKGEADAVKLEVQYMYEALMCGLLPAVEEYHNKDDFGPCKTPGSPYTDFGTLRAVALVKKSNKDINWNNIKGKKSCHTGVGDIAGWVIPVSLIRRQNDNSDIDSFFGESCAPGSDTKSNLCKLCIGDPKNSAANTKCSLSDKEAYYGNQGAFRCLVEKGDVAFVPHTVVFENTDGKNPAVWAKNLKSEDFELLCLDGSRAPVSNYKSCKLSGIPPPAIVTREESISDVVRIVANQQSLYGRKGFEKDMFQLFSSNKGNNLLFNDNTQCLITFDRQPKDIMEEYFGKPYYTTVYGASRSAMSSELISACTIKHC |  | 1070 ± 69.3 | 2.94 | 312.5 ± 2.9 | -8.9 ± 0.1 | -11.8 ± 0.0 | −8.9 ± 0.1
4 | Y558A: RcSxph STX binding pocket mutant Y558A (protein) MAPTFQTALFFTIISLSFAAPNAKQVRWCAISDLEQKKCNDLVGSCNVPDITLVCVLRSSTEDCMTAIKDGQADAMFLDSGEVYEASKDPYNLKPIIAEPYSSNRDLQKCLKERQQALAKKMIGHYIPQCDEKGNYQPQQCHGSTGHCWCVNAMGEKISGTNTPPGQTRATCERHELPKCLKERQVALGGDEKVLGRFVPQCDEKGNYEPQQFHGSTGYSWCVNAIGEEIAGTKTPPGKIPATCQKHDLVTTCHYAVAMVKKSSAFQFNQLKGKRSCHSGVSKTDGWKALVTVLVEKKLLSWDGPAKESIQRAMSKFFSVSCIPGATQTNLCKQCKGEEGKNCKNSHDEPYYGNYGAFRCLKEDMGDVAFLRSTALSDEHSEVYELLCPDNTRKPLNKYKECNLGTVPAGTVVTRKISDKTEDINNFLMEAQKRQCKLFSSAHGKDLMFDDSTLQLALLSSEVDAFLYLGVKLFHAMKALTGDAHLPSKNKVRWCTINKLEKMKCDDWSAVSGGAIACTEASCPKGCVKQILKGEADAVKLEVQYMYEALMCGLLPAVEEYHNKDDFGPCKTPGSPATDFGTLRAVALVKKSNKDINWNNIKGKKSCHTGVGDIAGWVIPVSLIRRQNDNSDIDSFFGESCAPGSDTKSNLCKLCIGDPKNSAANTKCSLSDKEAYYGNQGAFRCLVEKGDVAFVPHTVVFENTDGKNPAVWAKNLKSEDFELLCLDGSRAPVSNYKSCKLSGIPPPAIVTREESISDVVRIVANQQSLYGRKGFEKDMFQLFSSNKGNNLLFNDNTQCLITFDRQPKDIMEDYFGKPYYTTVYGASRSAMSSELISACTIKHC |  | 1.4 ± 0.3 | -1.00 | 1.2 ± 0.4 | -12.2 ± 0.2 | -15.3 ± 0.0 | −11.1 ± 1.1
5 | F561A: RcSxph STX binding pocket mutant F561A (protein) MAPTFQTALFFTIISLSFAAPNAKQVRWCAISDLEQKKCNDLVGSCNVPDITLVCVLRSSTEDCMTAIKDGQADAMFLDSGEVYEASKDPYNLKPIIAEPYSSNRDLQKCLKERQQALAKKMIGHYIPQCDEKGNYQPQQCHGSTGHCWCVNAMGEKISGTNTPPGQTRATCERHELPKCLKERQVALGGDEKVLGRFVPQCDEKGNYEPQQFHGSTGYSWCVNAIGEEIAGTKTPPGKIPATCQKHDLVTTCHYAVAMVKKSSAFQFNQLKGKRSCHSGVSKTDGWKALVTVLVEKKLLSWDGPAKESIQRAMSKFFSVSCIPGATQTNLCKQCKGEEGKNCKNSHDEPYYGNYGAFRCLKEDMGDVAFLRSTALSDEHSEVYELLCPDNTRKPLNKYKECNLGTVPAGTVVTRKISDKTEDINNFLMEAQKRQCKLFSSAHGKDLMFDDSTLQLALLSSEVDAFLYLGVKLFHAMKALTGDAHLPSKNKVRWCTINKLEKMKCDDWSAVSGGAIACTEASCPKGCVKQILKGEADAVKLEVQYMYEALMCGLLPAVEEYHNKDDFGPCKTPGSPYTDAGTLRAVALVKKSNKDINWNNIKGKKSCHTGVGDIAGWVIPVSLIRRQNDNSDIDSFFGESCAPGSDTKSNLCKLCIGDPKNSAANTKCSLSDKEAYYGNQGAFRCLVEKGDVAFVPHTVVFENTDGKNPAVWAKNLKSEDFELLCLDGSRAPVSNYKSCKLSGIPPPAIVTREESISDVVRIVANQQSLYGRKGFEKDMFQLFSSNKGNNLLFNDNTQCLITFDRQPKDIMEDYFGKPYYTTVYGASRSAMSSELISACTIKHC |  | 16.8 ± 6 | 0.48 | 13.4 ± 1.4 | -10.8 ± 0.1 | -12.7 ± 0.2 | −6.6 ± 0.9
